Experimental data: patent US20030129163A1

Target: KDR/Flk-1 antibody
Assay: cell-based or functional assay

Substance	# Blue Colonies (X-gal) on 5 x 10^5 KSY1 cells/well contacted with 1000 ng KDR/Flk-1 Ab, MOI = 4 (blue colonies)	# Blue Colonies (X-gal) on 5 x 10^5 KSY1 cells/well contacted with 5000 ng KDR/Flk-1 Ab, MOI = 4 (blue colonies)	# Blue Colonies (X-gal) on 1 x 10^5 KSY1 cells/well contacted with 1000 ng KDR/Flk-1 Ab, MOI = 10 (blue colonies)	# Blue Colonies (X-gal) on 1 x 10^5 KSY1 cells/well contacted with 5000 ng KDR/Flk-1 Ab, MOI = 10 (blue colonies)
PABA.CAE retroviral vector (Protein A at BstEII and Avr + Wild Type CAE env) (from UniProt P38507 212-269)	648	946	–	–
PABN.CAE retroviral vector (Protein A at BstEII and Ngo + Wild Type CAE env) (from UniProt P38507 212-269)	–	–	1560	2550
wild-type CAE virions (Wild Type CAE env, amphotropic)	–	66	–	20
